Data reported in patent US20140341939A1 (NATIONAL UNIVERSITY CORPORATION KOCHI UNIVERSITY, priority 2011, published 2014).
Where no end group is shown, it is not given here. [ ]: non-standard residue; d: D form. The star is where a group is joined. Biotin = O=C1N[C@H]2[C@H](CS[C@H]2CCCCC(=O)*)N1; βAla = NCCC(=O)O

Experiments:
HLA-DR molecule = biological target: T1, HLA-DR molecule (Homo sapiens, UniProt P01903+P01911, A100R/A169T/D86S/F76Y/I96L/K127E/L162R/M171V/N62H/P40V/Q125Y/R42H/S133A/S149N/S66Y/V115G/V209L/W38E); assay: Binding of biotinylated W332 peptide to CH1-DR4 cell; details: cultured 5 hr, FITC-streptavidin, flow cytometry (FIG. 29A)
T1 construct: expressed in transfected cells; host or cells: CH1-DR4 (CH1-DRB1*04:05) cells

HLA-DR4 molecule = biological target: T2, HLA-DR4 molecule (Homo sapiens, UniProt P01903+P01911, A100R/A169T/D86S/F76Y/I96L/K127E/L162R/M171V/N62H/P40V/Q125Y/R42H/S133A/S149N/S66Y/V115G/V209L/W38E); assay: Peptide binding to HLA-DR4 molecule on CH1-DR4 cells with p-chlorophenol; details: PCP added, 37° C. 4 hr, FITC-streptavidin (FIG. 31)
T2 construct: expressed in transfected cells; host or cells: CH1-DRB1*04:05 (CH1-DR4) cells
Description: CH1-DRB1*04:05 cells (CH1-DR4 cells) were suspended in 20% FCS IMDM ([…]) at 2×10^6/ml, so that 50 μl could provide 1×10^5 cells/well in a 96 well U plate. Then, 20 μM bTR174 (PSK^bio[…]^bioPβA: SEQ ID NO: 41) (biotinylation index peptide) was added at 100 μl per well, and IMDM containing 8 mM PCP was further added at 50 μl per well, and finally, CH1-DR4 cells were added at 50 μl (1×10^5/well) and the mixture was incubated at 37° C. for 4 hr. Free peptide was removed by centrifugation, the cells were stained with FITC-streptavidin, and measured by flow cytometer. […] By adding a competitive peptide, which is generated by adding a peptidase resistant sequence to the terminal of an unlabeled peptide, to this experiment system, the binding activity of the unlabeled peptide can be quantitatively measured.

Substance	binding to cell that expresses HLA-DR molecule (HLA-DR molecule)	binding of biotin-labeled peptide to HLA-DR4 molecule (HLA-DR4 molecule)
PSK^bioKRYFKLSHLQMHSRKHK^bioPβA (PSK(Biotin)KRYFKLSHLQMHSRKHK(Biotin)P[βAla]) [PbW332bPβ]	bind to CH1-DR4 cell	–
PSK^bioREFKLSKVWRDQK^bioPβA (PSK(Biotin)REFKLSKVWRDQK(Biotin)P[βAla]) [bTR174, biotinylation index peptide]	–	replaced a peptide endogenously bound to an HLA-DR4 molecule, in a PCP concentration dependent manner
